Experiments:
DANCE-specific protease [1] = assay: Inhibition of DANCE cleavage by protease inhibitors in transfected 293T cells; type: cell-based; details: 293T cells expressing human DANCE, serum-free medium with inhibitor, 48 hours; Western blotting with anti-FLAG M2
Method: 293T cells were used in expression experiments. Transfection was performed using the Lipofect AMINE Plus reagent as directed in the product instructions. 24 hours after transfection, the medium was exchanged with serum-free medium, and cultivation was continued for 48 hours; the resulting supernatant or cell lysate was used for Western blotting and in vitro binding assay.
A human DANCE cDNA with FLAG tag and 6×His tag added to the carboxyl terminus thereof was transfected to 293T cells; the cells were cultured using a serum-free medium comprising a cysteine protease inhibitor (E64) or serine protease inhibitor (aprotinin) for 48 hours; a recombinant protein was precipitated from the culture supernatant using Ni-NTA agarose and was developed by SDS-PAGE and Western blotting was performed using anti-FLAG M2 antibody.

DANCE-specific protease [2] = assay: Cleavage of mutated versus normal form of DANCE expressed in 293T cells; type: cell-based, human; details: Arg77 substituted with Ala, serum-free medium 48 hours, Western blotting with anti-FLAG M2
From the text: The 77th amino acid of human DANCE, arginine, was substituted with alanine using the Quick Change in vitro mutagenesis kit (Stratagene). The other procedures were the same as pEF6-hDANCE-FLAG.
An expression vector for the mutated form of DANCE resulting from the substitution of the 77th arginine of DANCE with alanine (with C-terminal FLAG and 6×His tag) (FIG. 7), and an expression vector for normal form of DANCE (with C-terminal FLAG and 6×His tag) were transfected to 293T cells; the cells were cultured using serum-free medium for 48 hours; a recombinant protein was precipitated from the culture supernatant using Ni-NTA agarose, and developed by SDS-PAGE, and Western blotting was performed using anti-FLAG M2 antibody.

[3] = system: vascular endothelial cells; assay: Vascular endothelial cell adhesion assay; type: cell-based; details: purified recombinant protein used for coating
From the text: Full-length DANCE promotes the adhesion and extension of vascular endothelial cells via cell surface integrin. The present inventor has reported to date that full-length DANCE can serve as a ligand for the integrins αvβ3, αvβ5, and α9β1. Since the domain serving as the ligand is considered to be around the RGD motif of the amino-terminal domain of DANCE, each recombinant protein of a DANCE mutant wherein RGD was replaced with RGE for one-amino-acid substitution (RGE DANCE), and amino-terminal cleaved form of DANCE (ΔND DANCE) were purified, and these, along with full-length DANCE, were subjected to vascular endothelial cell adhesion assay (FIG. 13).

DANCE = biological target: T1, DANCE (Bos taurus, UniProt Q5EA62); assay: Precipitation of DANCE-binding proteins from smooth muscle cell culture supernatant (homo-complex); details: 50 μg recombinant human DANCE mixed with 35S-labeled bovine arterial smooth muscle cell supernatant, anti-FLAG precipitation
T1 construct: After bovine arterial smooth muscle cells seeded on a 9-cm plate were labeled with 35S-Met and Cys for 24 hours; host or cells: bovine arterial smooth muscle cells (culture supernatant); bait purified from stably transfected 293T cells
T1 sequence (Q5EA62 24-448): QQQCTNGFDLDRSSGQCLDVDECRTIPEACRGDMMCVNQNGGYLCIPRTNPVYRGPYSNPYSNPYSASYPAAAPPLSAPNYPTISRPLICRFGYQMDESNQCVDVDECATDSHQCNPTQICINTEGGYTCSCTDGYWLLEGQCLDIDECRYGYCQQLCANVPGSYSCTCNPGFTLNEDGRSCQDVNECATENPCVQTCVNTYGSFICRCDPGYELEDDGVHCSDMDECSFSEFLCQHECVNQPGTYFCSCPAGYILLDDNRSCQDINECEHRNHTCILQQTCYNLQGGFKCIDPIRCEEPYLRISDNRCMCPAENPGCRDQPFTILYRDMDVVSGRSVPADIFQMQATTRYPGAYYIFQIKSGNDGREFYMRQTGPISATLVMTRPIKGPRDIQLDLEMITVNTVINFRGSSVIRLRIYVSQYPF
T1 sequence (Q9UBX5 24-448 partner): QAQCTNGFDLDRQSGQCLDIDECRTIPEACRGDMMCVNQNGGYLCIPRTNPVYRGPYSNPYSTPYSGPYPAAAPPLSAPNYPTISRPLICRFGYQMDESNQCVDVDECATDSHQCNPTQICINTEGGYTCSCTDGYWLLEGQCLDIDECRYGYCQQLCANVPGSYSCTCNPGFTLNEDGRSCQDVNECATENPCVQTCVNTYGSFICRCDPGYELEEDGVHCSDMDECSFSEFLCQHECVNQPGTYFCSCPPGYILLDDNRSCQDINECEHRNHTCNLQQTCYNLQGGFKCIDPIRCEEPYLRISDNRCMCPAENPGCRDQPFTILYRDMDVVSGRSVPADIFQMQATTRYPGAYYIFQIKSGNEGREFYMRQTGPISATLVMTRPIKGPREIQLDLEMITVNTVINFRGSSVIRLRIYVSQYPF
Method: (§1) After bovine arterial smooth muscle cells seeded on a 9-cm plate were labeled with 35S-Met and Cys for 24 hours, the culture supernatant and 50 μg of recombinant human DANCE (with C-terminal FLAG and 6×His) were mixed and precipitated with anti-FLAG agarose (Sigma), and the resulting precipitate was developed by SDS-PAGE and autoradiography was performed. The same culture supernatant was immunoprecipitated with commercially available antibodies against elastic fiber constituent protein (elastin, fibrillin 1, fibrillin 2 and LTBP2), and developed with the same SDS-PAGE gel, and autoradiography was performed.

LTBP2 = biological target: T2, LTBP2 (Bos taurus, UniProt Q28019); assay: Precipitation of DANCE-binding proteins from smooth muscle cell culture supernatant (LTBP2); details: 50 μg recombinant human DANCE mixed with 35S-labeled bovine arterial smooth muscle cell supernatant, anti-FLAG precipitation
T2 construct: host or cells: bovine arterial smooth muscle cells (culture supernatant); bait purified from stably transfected 293T cells
T2 sequence (Q28019 36-1842, one chain of several): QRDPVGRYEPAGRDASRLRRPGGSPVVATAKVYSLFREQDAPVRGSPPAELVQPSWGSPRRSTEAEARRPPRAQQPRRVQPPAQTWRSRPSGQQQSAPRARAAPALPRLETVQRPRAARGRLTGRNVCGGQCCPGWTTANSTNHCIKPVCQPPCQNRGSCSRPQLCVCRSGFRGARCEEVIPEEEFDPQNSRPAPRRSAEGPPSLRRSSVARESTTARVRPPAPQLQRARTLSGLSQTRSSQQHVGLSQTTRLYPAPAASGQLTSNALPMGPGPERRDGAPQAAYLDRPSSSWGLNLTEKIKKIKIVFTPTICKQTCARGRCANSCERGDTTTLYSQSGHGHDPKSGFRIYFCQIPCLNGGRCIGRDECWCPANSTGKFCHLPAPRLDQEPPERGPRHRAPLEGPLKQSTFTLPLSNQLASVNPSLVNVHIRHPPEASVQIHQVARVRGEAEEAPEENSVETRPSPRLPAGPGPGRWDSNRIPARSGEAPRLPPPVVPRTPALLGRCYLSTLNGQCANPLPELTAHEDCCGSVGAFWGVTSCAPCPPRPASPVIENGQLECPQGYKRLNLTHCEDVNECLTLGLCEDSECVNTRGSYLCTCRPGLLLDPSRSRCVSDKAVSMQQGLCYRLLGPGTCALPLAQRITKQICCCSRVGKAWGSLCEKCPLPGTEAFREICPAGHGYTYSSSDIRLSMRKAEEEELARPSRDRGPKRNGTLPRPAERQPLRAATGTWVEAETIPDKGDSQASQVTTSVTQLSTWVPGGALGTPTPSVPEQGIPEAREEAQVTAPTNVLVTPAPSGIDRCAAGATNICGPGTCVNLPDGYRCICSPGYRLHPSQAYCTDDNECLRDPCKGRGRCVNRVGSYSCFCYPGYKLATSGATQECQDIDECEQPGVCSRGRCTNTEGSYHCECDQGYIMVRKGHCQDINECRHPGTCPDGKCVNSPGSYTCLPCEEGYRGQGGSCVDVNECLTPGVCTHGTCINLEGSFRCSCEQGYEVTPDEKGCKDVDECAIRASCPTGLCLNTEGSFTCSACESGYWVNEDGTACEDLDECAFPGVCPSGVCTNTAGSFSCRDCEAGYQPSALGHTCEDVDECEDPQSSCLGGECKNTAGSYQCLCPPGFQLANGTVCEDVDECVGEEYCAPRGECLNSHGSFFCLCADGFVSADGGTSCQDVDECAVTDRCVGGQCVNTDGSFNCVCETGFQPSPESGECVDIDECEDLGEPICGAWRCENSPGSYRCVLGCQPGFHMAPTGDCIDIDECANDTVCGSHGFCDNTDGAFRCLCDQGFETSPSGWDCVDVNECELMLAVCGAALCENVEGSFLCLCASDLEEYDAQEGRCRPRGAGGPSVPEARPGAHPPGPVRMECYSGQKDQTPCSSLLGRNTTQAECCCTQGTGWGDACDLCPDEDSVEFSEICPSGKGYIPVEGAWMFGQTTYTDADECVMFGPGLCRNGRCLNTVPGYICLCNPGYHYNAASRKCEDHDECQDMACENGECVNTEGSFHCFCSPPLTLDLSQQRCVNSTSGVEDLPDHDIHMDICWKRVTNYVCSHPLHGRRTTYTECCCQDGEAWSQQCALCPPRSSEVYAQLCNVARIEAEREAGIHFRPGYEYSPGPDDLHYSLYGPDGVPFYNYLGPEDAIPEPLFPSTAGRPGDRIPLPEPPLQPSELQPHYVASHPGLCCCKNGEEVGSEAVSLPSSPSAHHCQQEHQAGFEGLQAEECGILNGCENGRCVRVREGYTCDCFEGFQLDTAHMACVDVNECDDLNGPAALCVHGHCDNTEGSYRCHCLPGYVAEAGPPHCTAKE
Method: as §1

human lysyl oxidase = biological target: T3, human lysyl oxidase (Homo sapiens, UniProt P28300); assay: In vitro binding assay, DANCE with lysyl oxidase; details: anti-FLAG precipitation, anti-Myc detection
T3 construct: The 22nd amino acid to the 417th amino acid of the polypeptide (417 amino acids) encoded by human lysyl oxidase; expressed in transfected cells
T3 sequence (P28300 22-417): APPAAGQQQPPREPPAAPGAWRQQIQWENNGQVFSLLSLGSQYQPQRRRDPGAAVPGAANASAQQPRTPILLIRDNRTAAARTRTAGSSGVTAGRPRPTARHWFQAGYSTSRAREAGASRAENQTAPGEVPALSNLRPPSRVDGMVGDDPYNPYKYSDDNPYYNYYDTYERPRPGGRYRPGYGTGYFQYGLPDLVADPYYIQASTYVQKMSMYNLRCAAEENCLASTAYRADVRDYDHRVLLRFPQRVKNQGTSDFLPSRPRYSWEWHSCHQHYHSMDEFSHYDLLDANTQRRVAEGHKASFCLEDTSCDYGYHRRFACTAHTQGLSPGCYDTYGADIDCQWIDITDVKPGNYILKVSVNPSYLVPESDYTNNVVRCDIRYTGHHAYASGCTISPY
T3 sequence (Q9UBX5 24-448 partner): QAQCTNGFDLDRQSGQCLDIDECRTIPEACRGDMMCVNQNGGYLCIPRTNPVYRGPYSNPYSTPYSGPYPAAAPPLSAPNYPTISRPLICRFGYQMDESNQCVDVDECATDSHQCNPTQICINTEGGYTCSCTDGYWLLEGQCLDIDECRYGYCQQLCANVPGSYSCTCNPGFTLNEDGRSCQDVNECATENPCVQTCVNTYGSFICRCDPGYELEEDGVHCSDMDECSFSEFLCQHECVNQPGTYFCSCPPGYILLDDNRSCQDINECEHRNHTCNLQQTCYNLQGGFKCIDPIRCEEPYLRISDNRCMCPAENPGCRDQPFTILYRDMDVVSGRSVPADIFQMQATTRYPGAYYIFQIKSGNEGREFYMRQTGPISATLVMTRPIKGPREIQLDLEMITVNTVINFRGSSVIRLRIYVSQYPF
Method: The 22nd amino acid to the 417th amino acid of the polypeptide (417 amino acids) encoded by human lysyl oxidase (GenBank accession number: AF039291.1) cDNA was amplified by a PCR method and incorporated in the XbaI/NotI site of pEF6/ssMyc.
A human DANCE construct with FLAG tag (FIG. 8), a human DANCE construct with Myc tag, and a human LTBP2 construct were separately transfected to 293T cells. After cultivation in serum-free medium for 48 hours, each culture supernatant and cell extract were mixed, and this was used as the protein solution. A protein solution from the DANCE construct with FLAG tag and a protein solution from DANCE or LTBP2 with Myc tag were mixed on ice for 1 hour, and precipitated with anti-FLAG antibody, and the resulting precipitate was developed by SDS-PAGE, and detected using anti-Myc antibody or anti-FLAG antibody.
The assay was performed in the same manner as Example 6 except that a precipitate obtained using anti-FLAG antibody was developed by SDS-PAGE and detected using anti-Myc antibody.

human skin fibroblasts = assay: Formation of elastic fibers in cultured human skin fibroblasts; type: cell-based
Method: Human fibroblasts were kindly supplied by the Department of Plastic Surgery, Kyoto University Hospital. A cover glass was placed on the bottom of a 24-well plate, on which human fibroblasts were seeded at 7.5×10^4 cells per well, and cultured in a DMEM medium supplemented with 10% FBS at 37° C. in the presence of 5% CO2. After the plate washed with PBS on Day 3, the medium was exchanged with a DMEM/F12 medium not supplemented with FBS, and purified DANCE protein, cleaved form of DANCE protein 4 μg/ml, or FBS was added. Cultivation was continued at 37° C. in the presence of 5% CO2, and the cells were fixed and immunologically stained on Day 14.
On Day 14 of cultivation, the cells were washed with 1 ml of PBS three times, after which they were fixed with 100% methanol at −20° C. for 30 minutes. After washing with PBS, the cells were subjected to blocking with a PBS containing 2% BSA at room temperature for 30 minutes, after which the cells were incubated with the polyclonal anti-elastin antibody (dilution rate 1/100) and the monoclonal anti-FLAG antibody (dilution rate 1/100) at room temperature for at least 1 hour. The cells were washed with PBS and further incubated with the anti-rabbit Alexa Fluor 488 antibody (dilution rate 1/100) and the anti-mouse Alexa Fluor 546 antibody (dilution rate 1/100) at room temperature for 1 hour. After washing with PBS, the cells were fixed with 4% para-formaldehyde at room temperature for 10 minutes and again washed with PBS, after which the sample was mounted onto a glass slide using a DAPI-containing Vectashield. Examination was performed using a confocal microscope.
Human skin fibroblasts were seeded to reach confluency; the medium was replaced with serum-free medium or a medium containing 10% fetal calf serum; the cells were cultured for 2 weeks; the formation of elastic fibers was analyzed by immunostaining with anti-elastin antibody.

aprotinin
inhibition of the cleavage of DANCE (DANCE-specific protease [1]): inhibited

CC(C)C[C@H](NC(=O)[C@H]1O[C@@H]1C(=O)O)C(=O)NCCCCN=C(N)N [E64]
inhibition of the cleavage of DANCE (DANCE-specific protease [1]): not inhibited

B1: mutated form of DANCE: mutated form of DANCE resulting from the substitution of the 77th arginine of DANCE with alanine (protein, UniProt Q9UBX5 24-448, looked up, variant R77A)
Fibulin-5: QAQCTNGFDLDRQSGQCLDIDECRTIPEACRGDMMCVNQNGGYLCIPRTNPVYAGPYSNPYSTPYSGPYPAAAPPLSAPNYPTISRPLICRFGYQMDESNQCVDVDECATDSHQCNPTQICINTEGGYTCSCTDGYWLLEGQCLDIDECRYGYCQQLCANVPGSYSCTCNPGFTLNEDGRSCQDVNECATENPCVQTCVNTYGSFICRCDPGYELEEDGVHCSDMDECSFSEFLCQHECVNQPGTYFCSCPPGYILLDDNRSCQDINECEHRNHTCNLQQTCYNLQGGFKCIDPIRCEEPYLRISDNRCMCPAENPGCRDQPFTILYRDMDVVSGRSVPADIFQMQATTRYPGAYYIFQIKSGNEGREFYMRQTGPISATLVMTRPIKGPREIQLDLEMITVNTVINFRGSSVIRLRIYVSQYPF
resistance to cleavage with a protease (DANCE-specific protease [2]): exhibit resistance to cleavage with a protease

B2: RGE DANCE: DANCE mutant wherein RGD was replaced with RGE for one-amino-acid substitution (protein)
chain: QAQCTNGFDLDRQSGQCLDIDECRTIPEACRGEMMCVNQNGGYLCIPRTNPVYRGPYSNPYSTPYSGPYPAAAPPLSAPNYPTISRPLICRFGYQMDESNQCVDVDECATDSHQCNPTQICINTEGGYTCSCTDGYWLLEGQCLDIDECRYGYCQQLCANVPGSYSCTCNPGFTLNEDGRSCQDVNECATENPCVQTCVNTYGSFICRCDPGYELEEDGVHCSDMDECSFSEFLCQHECVNQPGTYFCSCPPGYILLDDNRSCQDINECEHRNHTCNLQQTCYNLQGGFKCIDPIRCEEPYLRISDNRCMCPAENPGCRDQPFTILYRDMDVVSGRSVPADIFQMQATTRYPGAYYIFQIKSGNEGREFYMRQTGPISATLVMTRPIKGPREIQLDLEMITVNTVINFRGSSVIRLRIYVSQYPF
modifications: left off: small tags and cut ends
notes: DANCE mutant wherein RGD was replaced with RGE for one-amino-acid substitution
cell adhesion activity [3]: almost no cell adhesion activity

B3: DANCE: secretory protein (developmental arteries and neural crest EGF-like; fibulin-5), SEQ ID NO:2 or 4; recombinant human form with C-terminal FLAG and 6×His (protein, listed as Homo sapiens)
chain: MPGIKRILTVTILALCLPSPGNAQAQCTNGFDLDRQSGQCLDIDECRTIPEACRGDMMCVNQNGGYLCIPRTNPVYRGPYSNPYSTPYSGPYPAAAPPLSAPNYPTISRPLICRFGYQMDESNQCVDVDECATDSHQCNPTQICINTEGGYTCSCTDGYWLLEGQCLDIDECRYGYCQQLCANVPGSYSCTCNPGFTLNEDGRSCQDVNECATENPCVQTCVNTYGSFICRCDPGYELEEDGVHCSDMDECSFSEFLCQHECVNQPGTYFCSCPPGYILLDDNRSCQDINECEHRNHTCNLQQTCYNLQGGFKCIDPIRCEEPYLRISDNRCMCPAENPGCRDQPFTILYRDMDVVSGRSVPADIFQMQATTRYPGAYYIFQIKSGNEGREFYMRQTGPISATLVMTRPIKGPREIQLDLEMITVNTVINFRGSSVIRLRIYVSQYPF
modifications: C-terminal FLAG and 6xHis tags
notes: secretory protein (developmental arteries and neural crest EGF-like); recombinant human form with C-terminal FLAG and 6×His
formation of a homo-complex (DANCE): forms a homo-complex | binding to LTBP2 (LTBP2): binds to LTBP2 | binding to lysyl oxidase (human lysyl oxidase): suggested to bind to lysyl oxidase | cell adhesion activity [3]: cell adhesion was promoted with dependence on the concentration of the protein used for coating | formation of elastic fibers (anti-elastin immunostaining) (human skin fibroblasts; protein added to serum-free medium at 4 μg/ml, cultured for 2 weeks): elastic fibers were formed at a higher level than with the serum-containing medium | localization of the added recombinant protein (anti-FLAG antibody) (human skin fibroblasts; serum-free medium, 4 μg/ml): co-localized with the elastic fibers formed

From patent US7906616B2, “Truncated DANCE, DANCE complex and method of using these” (Kansai Medical University, priority 2004, dated 2011)
